Reference: EP2182008A2 (ICOS Corporation, dated 2010)
Values belong to the binder of their own block, whether it stands above or below them.

B4: soluble ICAM-R/IgG1 fusion protein (Fc fusion, UniProt P32942 30-485, looked up)
chain: QEFLLRVEPQNPVLSAGGSLFVNCSTDCPSSEKIALETSLSKELVASGMGWAAFNLSNVTGNSRILCSVYCNGSQITGSSNITVYRLPERVELAPLPPWQPVGQNFTLRCQVEDGSPRTSLTVVLLRWEEELSRQPAVEEPAEVTATVLASRDDHGAPFSCRTELDMQPQGLGLFVNTSAPRQLRTFVLPVTPPRLVAPRFLEVETSWPVDCTLDGLFPASEAQVYLALGDQMLNATVMNHGDTLTATATATARADQEGAREIVCNVTLGGERREARENLTVFSFLGPIVNLSEPTAHEGSTVTVSCMAGARVQVTLDGVPAAAPGQPAQLQLNATESDDGRSFFCSATLEVDGEFLHRNSSVQLRVLYGPKIDRATCPQHLKWKDKTRHVLQCQARGNPYPELRCLKEGSSREVPVGIPFFVNVTHNGTYQCQASSSRGKYTLVVVMDIEAGSSH
notes: not shown: IgG1 portion
B5: VCAM-1/IgG1 fusion protein (seven extracellular immunoglobulin-like domains) (Fc fusion, UniProt P19320 25-698, looked up)
chain: FKIETTPESRYLAQIGDSVSLTCSTTGCESPFFSWRTQIDSPLNGKVTNEGTTSTLTMNPVSFGNEHSYLCTATCESRKLEKGIQVEIYSFPKDPEIHLSGPLEAGKPITVKCSVADVYPFDRLEIDLLKGDHLMKSQEFLEDADRKSLETKSLEVTFTPVIEDIGKVLVCRAKLHIDEMDSVPTVRQAVKELQVYISPKNTVISVNPSTKLQEGGSVTMTCSSEGLPAPEIFWSKKLDNGNLQHLSGNATLTLIAMRMEDSGIYVCEGVNLIGKNRKEVELIVQEKPFTVEISPGPRIAAQIGDSVMLTCSVMGCESPSFSWRTQIDSPLSGKVRSEGTNSTLTLSPVSFENEHSYLCTVTCGHKKLEKGIQVELYSFPRDPEIEMSGGLVNGSSVTVSCKVPSVYPLDRLEIELLKGETILENIEFLEDTDMKSLENKSLEMTFIPTIEDTGKALVCQAKLHIDDMEFEPKQRQSTQTLYVNVAPRDTTVLVSPSSILEEGSSVNMTCLSQGFPAPKILWSRQLPNGELQPLSENATLTLISTKMEDSGVYLCEGINQAGRSRKEVELIIQVTPKDIKLTAFPSESVKEGDTVIISCTCGNVPETWIILKKKAETGDTVLKSIDGAYTIRKAQLKDAGVYECESKNKVGSQLRSLTLDVQGRENNKDYFSPE
notes: domain: seven extracellular immunoglobulin-like domains; also called VCAM-I/Ig; VCAM-I/IgG; not shown: IgG1 portion
B6: soluble ICAM-1/IgG1 fusion protein (Fc fusion, UniProt P05362 28-480, looked up)
chain: QTSVSPSKVILPRGGSVLVTCSTSCDQPKLLGIETPLPKKELLLPGNNRKVYELSNVQEDSQPMCYSNCPDGQSTAKTFLTVYWTPERVELAPLPSWQPVGKNLTLRCQVEGGAPRANLTVVLLRGEKELKREPAVGEPAEVTTTVLVRRDHHGANFSCRTELDLRPQGLELFENTSAPYQLQTFVLPATPPQLVSPRVLEVDTQGTVVCSLDGLFPVSEAQVHLALGDQRLNPTVTYGNDSFSAKASVSVTAEDEGTQRLTCAVILGNQSQETLQTVTIYSFPAPNVILTKPEVSEGTEVTVKCEAHPRAKVTLNGVPAQPLGPRAQLLLKATPEDNGRSFSCSATLEVAGQLIHKNQTRELRVLYGPRLDERDCPGNWTWPENSQQTPMCQAWGNPLPELKCLKDGTFPLPIGESVTVTRDLEGTYLCRARSTQGEVTRKVTVNVLSPRYE
notes: also called ICAM-I/IgG; not shown: IgG1 portion

Legend:
[1] = target: B6; test: ELISA, detection with anti-IgG4 HP6023
[2] = target: B4; test: ELISA, detection with anti-IgG4 HP6023
[3] = target: B5; test: ELISA, detection with anti-IgG4 HP6023
[4] = target: T1, human αd/CD18 expressed on transfected cells (human, UniProt P05107 23-769); test: adhesion of transfected CHO cells to immobilized CAM, crystal violet, A570
T1 construct: whole, on cells; Heterodimer on COS, CHO or JY transfectants; also called αd/CD18 transfectants; αd/CD18 CHO transfected cells

[5] = target: T1, human αd/CD18 expressed on transfected …; test: adhesion of αdβ2-transfected CHO cells to coated wells
[6] = target: T1, human αd/CD18 expressed on transfected …; test: summary of the adhesion and flow cytometry assays
[7] = target: T2, LFA-1 leucine zipper fusion protein (UniProt P20701 26-1090; P05107 23-700); test: ELISA, CAM/Ig on LFA-1LZ captured with TS2/4.1
T2 construct: also called LFA-1LZ; captured CD11a/CD18; not shown: leucine zipper strand

[8] = target: T3, α4β1 expressed on CHO cells (UniProt P13612 34-1032; P05556 21-798, limits assumed); test: adhesion of transfected CHO cells to immobilized CAM, crystal violet
T3 construct: whole, on cells; also called VLA-4; α4 transformed CHO cells
T3 sequence (P13612 34-1032 limits assumed, chain 1 of 2): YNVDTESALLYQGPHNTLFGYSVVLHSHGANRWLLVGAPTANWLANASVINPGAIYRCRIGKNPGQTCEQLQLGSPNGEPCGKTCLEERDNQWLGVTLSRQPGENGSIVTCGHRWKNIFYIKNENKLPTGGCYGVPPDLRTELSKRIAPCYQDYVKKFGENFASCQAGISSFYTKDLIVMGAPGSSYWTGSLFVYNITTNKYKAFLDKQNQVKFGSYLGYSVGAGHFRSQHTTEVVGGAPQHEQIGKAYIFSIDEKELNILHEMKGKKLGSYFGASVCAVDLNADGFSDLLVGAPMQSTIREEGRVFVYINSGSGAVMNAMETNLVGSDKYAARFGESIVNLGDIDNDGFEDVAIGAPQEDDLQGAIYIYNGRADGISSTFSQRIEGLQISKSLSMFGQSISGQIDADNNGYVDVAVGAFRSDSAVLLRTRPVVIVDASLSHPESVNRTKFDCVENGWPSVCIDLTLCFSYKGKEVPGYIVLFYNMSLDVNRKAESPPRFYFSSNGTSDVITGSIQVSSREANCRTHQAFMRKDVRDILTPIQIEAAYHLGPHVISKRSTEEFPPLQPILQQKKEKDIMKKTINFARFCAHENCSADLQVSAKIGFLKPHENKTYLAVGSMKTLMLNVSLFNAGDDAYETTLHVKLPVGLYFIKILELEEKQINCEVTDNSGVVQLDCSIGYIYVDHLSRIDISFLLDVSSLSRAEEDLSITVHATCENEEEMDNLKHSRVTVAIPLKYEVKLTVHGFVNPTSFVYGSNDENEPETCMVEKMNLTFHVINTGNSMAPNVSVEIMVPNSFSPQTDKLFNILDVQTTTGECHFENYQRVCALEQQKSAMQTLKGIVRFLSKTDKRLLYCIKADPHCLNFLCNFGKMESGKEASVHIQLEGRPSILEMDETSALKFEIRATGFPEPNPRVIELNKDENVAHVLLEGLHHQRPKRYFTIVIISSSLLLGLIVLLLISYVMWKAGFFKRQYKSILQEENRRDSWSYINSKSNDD
T3 sequence (P05556 21-798 limits assumed, chain 2 of 2): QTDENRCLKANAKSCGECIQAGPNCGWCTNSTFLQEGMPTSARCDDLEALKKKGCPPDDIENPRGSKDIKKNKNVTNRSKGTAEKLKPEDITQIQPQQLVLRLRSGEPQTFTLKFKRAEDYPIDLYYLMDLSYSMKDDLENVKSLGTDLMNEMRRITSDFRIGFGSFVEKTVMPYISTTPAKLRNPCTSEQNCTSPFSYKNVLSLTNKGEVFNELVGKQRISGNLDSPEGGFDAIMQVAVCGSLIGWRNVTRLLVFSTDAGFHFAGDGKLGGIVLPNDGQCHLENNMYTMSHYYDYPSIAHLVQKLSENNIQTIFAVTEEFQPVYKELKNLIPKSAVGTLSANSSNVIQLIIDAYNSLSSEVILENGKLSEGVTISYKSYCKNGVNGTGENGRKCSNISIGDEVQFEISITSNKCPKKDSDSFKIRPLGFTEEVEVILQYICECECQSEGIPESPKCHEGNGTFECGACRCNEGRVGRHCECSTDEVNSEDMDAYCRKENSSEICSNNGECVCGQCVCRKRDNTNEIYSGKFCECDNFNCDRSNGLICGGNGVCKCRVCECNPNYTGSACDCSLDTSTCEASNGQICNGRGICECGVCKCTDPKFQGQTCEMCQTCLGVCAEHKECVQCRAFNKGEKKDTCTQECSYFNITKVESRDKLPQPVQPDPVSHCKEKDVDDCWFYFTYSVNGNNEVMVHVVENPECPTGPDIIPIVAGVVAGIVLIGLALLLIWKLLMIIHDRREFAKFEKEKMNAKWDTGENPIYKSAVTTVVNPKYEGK

[9] = target: T1, human αd/CD18 expressed on transfected …; test: as above
[10] = target: T2, LFA-1 leucine zipper fusion protein; test: ELISA, CAM/Ig on captured integrin

Binder: B4
binding result [6]: binds

Binder: B5
binding result [7]: no binding

Binder: B6
binding result [8]: no binding (tested: 0.5 µg/well)
binding result [9]: no binding (tested: 0.5 µg/well)
fold above background [10]: ~15 fold

More lines, now with the values ahead:

binding result [1]: no binding
binding result [2]: no binding
binding result [3]: no binding
B1: CD11a I domain/IgG chimeric protein (Fc fusion, UniProt P20701 153-335, looked up)
chain: GNVDLVFLFDGSMSLQPDEFQKILDFMKDVMKKLSNTSYQFAAVQFSTSYKTEFDFSDYVKRKDPDALLKHVKHMLLLTNTFGAINYVATEVFREELGARPDATKVLIIITDGEATDSGNIDAAKDIIRYIIGIGKHFQTKESQETLHKFASKPASEFVKILDTFEKLKDLFTELQKKIYVIE
notes: domain: I domain; Negative control in the I domain ELISA; also called CD11a/IgG4 protein; not shown: IgG4 portion

binding result [4]: binds
B2: VCAM-1 domains 1 and 2 fused to human immunoglobulin Fc (Fc fusion, UniProt P19320 25-220, looked up)
chain: FKIETTPESRYLAQIGDSVSLTCSTTGCESPFFSWRTQIDSPLNGKVTNEGTTSTLTMNPVSFGNEHSYLCTATCESRKLEKGIQVEIYSFPKDPEIHLSGPLEAGKPITVKCSVADVYPFDRLEIDLLKGDHLMKSQEFLEDADRKSLETKSLEVTFTPVIEDIGKVLVCRAKLHIDEMDSVPTVRQAVKELQVY
notes: domain: domains 1 and 2; also called two domain form of VCAM-1; two domain VCAM-1 expression construct; not shown: human immunoglobulin Fc

binding result [5]: no binding (tested: 100 ng/ml coat)
B3: E-selectin (immobilized) (ligand, UniProt P16581 22-556, looked up)
chain: WSYNTSTEAMTYDEASAYCQQRYTHLVAIQNKEEIEYLNSILSYSPSYYWIGIRKVNNVWVWVGTQKPLTEEAKNWAPGEPNNRQKDEDCVEIYIKREKDVGMWNDERCSKKKLALCYTAACTNTSCSGHGECVETINNYTCKCDPGFSGLKCEQIVNCTALESPEHGSLVCSHPLGNFSYNSSCSISCDRGYLPSSMETMQCMSSGEWSAPIPACNVVECDAVTNPANGFVECFQNPGSFPWNTTCTFDCEEGFELMGAQSLQCTSSGNWDNEKPTCKAVTCRAVRQPQNGSVRCSHSPAGEFTFKSSCNFTCEEGFMLQGPAQVECTTQGQWTQQIPVCEAFQCTALSNPERGYMNCLPSASGSFRYGSSCEFSCEQGFVLKGSKRLQCGPTGEWDNEKPTCEAVRCDAVHQPPKGLVRCAHSPIGEFTYKSSCAFSCEEGFELHGSTQLECTSQGQWTEEVPSCQVVKCSSLAVPGKINMSCSGEPVFGTVCKFACPEGWTLNGSAARTCGATGHWSGLLPTCEAPTESNIP
notes: Control adhesion molecule; also called E-selection
